Data on 10 molecules can be found in patent US20220033481A1 (NANJING LEGEND BIOTECH, published 2022).

Numbering of substitutions follows the chain as printed.

Sequences and labels used below:
B1: AS01299 sdAb (VHH)
VHH: QVQLVESGGGLVQPGGSLRLSCAASGSIFSIATMAWYRQAPGKQRELVAGITRSGSTNYRDSVKGRFTISRDNAKNTMYLQMNSLKPEDTAVYYCTDYSSRYYHDYWGQGTQVTVSS
notes: Llama sdAb made in E. coli with a C-terminal 6xHis tag; also called sdAb AS01299
B2: AS01274 sdAb (VHH)
VHH: QVQLVESGGGLVQPGGSLRLSCVASGSIASIATMAWYRQAPGQQRELVAGITRGGSTKYADSVKGRFTISRDNAKNTLYLQMNSLKPDDTAVYYCTDYSRKYYQDYWGQGTQVTVSS
notes: Llama sdAb made in E. coli with a C-terminal 6xHis tag; also called sdAb AS01274
B3: AS01299VH4 (VHH)
VHH: B1 VHH with Q1E, Q44G, R45L, A49S, A74S, M78L, K86R, P87A, Q112L
notes: Humanized variant of AS01299, C-terminal 6xHis tag
B4: AS01299VH4-L47 (VHH)
VHH: B1 VHH with Q1E, Q44G, R45L, L47W, A49S, A74S, M78L, K86R, P87A, Q112L
notes: Humanized variant of AS01299, C-terminal 6xHis tag; also called AS01299VH4-L47-2
B5: AS01299VH3a (VHH)
VHH: B1 VHH with Q1E, Q44G, R45L, A74S, K86R, P87A, Q112L
notes: as for B3
B6: AS01299VH3a-L47 (VHH)
VHH: B1 VHH with Q1E, Q44G, R45L, L47W, A74S, K86R, P87A, Q112L
notes: Humanized variant of AS01299, C-terminal 6xHis tag; also called AS01299VH3a-L47-2
B7: AS01299VH3a-A49 (VHH)
VHH: B1 VHH with Q1E, Q44G, R45L, A49S, A74S, K86R, P87A, Q112L
notes: as for B3
B8: AS01299VH3a-M78 (VHH)
VHH: B1 VHH with Q1E, Q44G, R45L, A74S, M78L, K86R, P87A, Q112L
notes: as for B3
B9: AS01274VHa (VHH)
VHH: B2 VHH with Q1E, V23A, Q43K, Q44G, R45L, A74S, K86R, P87A, D88E, Q112L
notes: Humanized variant of AS01274, C-terminal 6xHis tag
B10: AS01274VHa-A49 (VHH)
VHH: EVQLVESGGGLVQPGGSLRLSCAASGSIASIATMAWYRQAPGKGLELVSGITRGGSTKYADSVKGRFTISRDNSKNTLYLQMNSLRAEDTAVYYCTDYSRKYYQDYWGQGTLVTVSS
notes: as for B9

Broadly, the Kd is a measure of binding affinity in units of concentration. One may read the koff as the first-order rate constant of dissociation. Broadly, the kon is the rate constant with which the complex forms.

T1 sequence (P02787 20-698 limits assumed): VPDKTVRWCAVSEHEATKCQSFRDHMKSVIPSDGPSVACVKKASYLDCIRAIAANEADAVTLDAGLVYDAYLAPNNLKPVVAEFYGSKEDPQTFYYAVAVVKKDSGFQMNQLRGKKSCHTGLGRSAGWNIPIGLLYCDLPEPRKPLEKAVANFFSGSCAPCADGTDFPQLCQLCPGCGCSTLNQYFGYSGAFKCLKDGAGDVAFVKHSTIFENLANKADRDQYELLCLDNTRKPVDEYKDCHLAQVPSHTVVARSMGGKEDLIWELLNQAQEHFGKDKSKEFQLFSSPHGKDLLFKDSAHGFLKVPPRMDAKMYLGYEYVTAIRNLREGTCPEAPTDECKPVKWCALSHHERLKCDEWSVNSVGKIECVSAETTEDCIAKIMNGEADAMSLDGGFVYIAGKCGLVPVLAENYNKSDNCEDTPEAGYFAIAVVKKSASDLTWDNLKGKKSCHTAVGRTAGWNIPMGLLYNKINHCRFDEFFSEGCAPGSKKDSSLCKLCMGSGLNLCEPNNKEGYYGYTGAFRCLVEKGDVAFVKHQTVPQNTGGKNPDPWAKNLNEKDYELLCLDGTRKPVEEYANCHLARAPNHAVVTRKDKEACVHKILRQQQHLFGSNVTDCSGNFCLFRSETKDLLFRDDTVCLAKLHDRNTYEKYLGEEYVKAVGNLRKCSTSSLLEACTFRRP

One assay has as its target T1, human transferrin (human, UniProt P02787 20-698). Nature of the assay: SPR, BIAcore T200, sdAb amine-coupled to CM5 chip, transferrin injected. The method, then:
(§1) Experiments were performed using a BIAcore T200 optical sensor platform and research grade CM5 sensor chips (GE Healthcare). AS01274 sdAb and AS01299 sdAb were immobilized on the sensor chip surface by standard amine coupling. All experiments were carried out in HEPES buffer [10 mM HEPES (pH 7.4), 150 mM NaCl, 3.4 mM EDTA, 0.005% Tween 20] at 25° C. Human Transferrin and Cynomolgus monkey Transferrin were injected at serial dilutions ranging from 3.9 nM to 2000 nM at a flow rate of 30 μl/min unless otherwise indicated. The amount of bound analyte after subtraction from the blank control surface is shown as relative response units (RU). The double referenced sensorgrams from each injection series were analyzed for binding kinetics using BIA evaluation software (GE Healthcare). Dissociation constants (KDs) were calculated from the on- and off-rates (kₒₙ and koff, respectively), as determined by global fitting of the experimental data to a 1:1 Langmuir binding model (Chi²<1).
For orientation: SPR reads the build-up and loss of mass on a sensor chip optically.
B1 gave a Kd of 140000 pM, a koff of 0.0031 s⁻¹ and a kon of 22000 M⁻¹ s⁻¹.

For the molecule B2, the Kd came out at 16000 pM, the koff is 0.00019 s⁻¹ and the kon worked out at 12000 M⁻¹ s⁻¹.

The target in the next assay is T2, cynomolgus monkey transferrin (cynomolgus monkey, UniProt A0A2K5UXZ0 20-695).
T2 construct: also called cynomolgus transferrin
The description is as above. The method, then: as §1
With B1, binding was characterised by a dissociation constant (Kd) of 8800 pM, the koff is 0.00046 s⁻¹ and the kon amounted to 52000 M⁻¹ s⁻¹.

Molecule B2 displayed a Kd of 1600 pM, a koff of 4.4e-05 s⁻¹ and a kon of 27000 M⁻¹ s⁻¹.

In the next assay the target is T2, cynomolgus monkey transferrin. Nature of the assay: SPR, BIAcore T200, cynomolgus monkey transferrin as ligand, sdAb as analyte.
Turning to B1, binding was put at a Kd of 65 pM, the koff came to 0.00056 s⁻¹ and the kon was found to be 8.6e+06 M⁻¹ s⁻¹.

B3 had a Kd of 54 pM, a koff of 0.0003 s⁻¹ and a kon of 5.7e+06 M⁻¹ s⁻¹.

B4 returned a Kd of 71 pM, a koff of 0.00066 s⁻¹ and an association rate constant (kon) of 9.3e+06 M⁻¹ s⁻¹.

For B5, the affinity, expressed as Kd, was 57 pM; the koff came to 0.00028 s⁻¹; the kon is 4.9e+06 M⁻¹ s⁻¹.

In turn, B6 had a Kd of 53 pM, a koff of 0.00048 s⁻¹ and a kon of 8.9e+06 M⁻¹ s⁻¹.

As for B7, the Kd turned out to be 100 pM, the koff was found to be 0.00027 s⁻¹ and the kon turned out to be 2.6e+06 M⁻¹ s⁻¹.

The molecule B2 showed a Kd of 6.7 pM, a koff of 8.9e-05 s⁻¹ and an on-rate (kon) of 1.3e+07 M⁻¹ s⁻¹.

B8 gave a Kd of 58 pM, a koff of 0.0003 s⁻¹ and a kon of 5.2e+06 M⁻¹ s⁻¹.

Molecule B9 returned a Kd of 11 pM, a koff of 8.1e-05 s⁻¹ and a kon of 7.3e+06 M⁻¹ s⁻¹.

Molecule B10 displayed a Kd of 9 pM, a dissociation rate constant (koff) of 7.9e-05 s⁻¹ and a kon of 8.7e+06 M⁻¹ s⁻¹.

The target of another assay is T1, human transferrin. The assay can be described thus: SPR, BIAcore T200, human transferrin amine-coupled to CM5 chip, sdAb injected. The method, then:
as §1, with “Healthcare; Little Chalfont, United Kingdom). Human transferrin was” for “Healthcare). AS01274 sdAb and AS01299 sdAb were”, “Human Transferrin and Cynomolgus monkey Transferrin were injected at serial dilutions ranging from 3.9 nM to 2000 nM at a flow rate of 30 μl/min unless otherwise indicated.” left out
B1: the Kd was determined as 980 pM, the koff came to 0.0022 s⁻¹ and the kon was 2.2e+06 M⁻¹ s⁻¹.

As to B3, binding was characterised by a dissociation constant (Kd) of 1100 pM, the dissociation rate constant (koff) is 0.0011 s⁻¹ and the association rate constant (kon) was found to be 1e+06 M⁻¹ s⁻¹.

B4 had a Kd of 6000 pM, a koff of 0.0035 s⁻¹ and a kon of 590000 M⁻¹ s⁻¹.

For B5, binding was characterised by a dissociation constant (Kd) of 1300 pM, the koff is 0.0011 s⁻¹ and the kon is 810000 M⁻¹ s⁻¹.

As to B6, the Kd came to 3700 pM, the koff came to 0.0025 s⁻¹ and the kon amounted to 680000 M⁻¹ s⁻¹.

For the molecule B7, binding was characterised by a dissociation constant (Kd) of 2400 pM, the koff amounted to 0.001 s⁻¹ and the kon turned out to be 420000 M⁻¹ s⁻¹.

Regarding B2, binding was put at a Kd of 90 pM, the koff amounted to 0.0003 s⁻¹ and the kon was 3.3e+06 M⁻¹ s⁻¹.

In turn, B8 gave a Kd of 1100 pM, a koff of 0.0012 s⁻¹ and a kon of 1e+06 M⁻¹ s⁻¹.

For B9, binding was characterised by a dissociation constant (Kd) of 130 pM, the koff stood at 0.0002 s⁻¹ and the kon was 1.5e+06 M⁻¹ s⁻¹.

For B10, the Kd was determined as 110 pM, the koff is 0.00016 s⁻¹ and the kon amounted to 1.5e+06 M⁻¹ s⁻¹.
